Measurements from article PMC10433997, “Highly Cross-Reactive and Protective Influenza A Virus H3N2 Hemagglutinin- and Neuraminidase-Specific Human Monoclonal Antibodies” (Microbiology Spectrum, 2023).
Numbering of substitutions follows the chain as printed.

B1: 1092E4 H3-specific human monoclonal antibody (antibody, V domains shown)
VH: QVQLVQSGAEVKKPGASVKVSCKASGYSFTRYGISWVRQAPGQGLEWMGWISAYTGNTDYAQKFQGRITMTTDTSTSTVYMELRSLRSDDTAVYYCARDHPQGVVILGSYYYGMDVWGQGNTVTVSS
VL: EIVLTQSPGTLSLSPGERATLSCRASQSVTSRYLAWYQQKLGQAPRLLIYGASSRATGIPDRFSGSGSGTDFTLTISSLEPEDFAVYYCQQSGSPRTFGQGTKVEIK
notes: also called H3 hMAb 1092E4; source: HEK293T, transfected; IgG captured and eluted from Magne protein A beads
B2: 1092C4 H3-specific human monoclonal antibody (antibody, V domains shown)
VH: B1 VH with Q1E, V79A, H100L
VL: B1 VL with F84L
notes: also called H3 hMAb 1092C4; source: HEK293T, transfected; IgG captured and eluted from Magne protein A beads

Experiments:
[1] = biological target: recombinant hemagglutinin (HA) of A/Netherlands/219/03 H7N7 (Influenza A virus …, UniProt Q6VMK1, strain); test: ELISA; conditions: both partners purified
[2] = biological target: T1, H3 hemagglutinin protein of A/Brisbane/10/2007 H3N2 (Influenza A virus A/Brisbane/10/2007 …, UniProt A8W8K8, strain); test: cell-based or functional assay
[3] = biological target: T2, hemagglutinin (HA) of A/Switzerland/9715283/2013 H3N2 (Influenza A virus …, strain); test: cell-based or functional assay
[4] = biological target: T1, H3 hemagglutinin protein of …; test: cell-based or functional assay; remark: listed apart in the source
[5] = biological target: T2, hemagglutinin (HA) of …; test: cell-based or functional assay; remark: listed apart in the source
[6] = biological target: T3, hemagglutinin (HA) of A/Hong Kong/1/1968 H3N2 (Influenza A virus A/Hong Kong/1/1968 …, UniProt Q91MA7); test: immunostaining of cells or tissue; conditions: one partner purified
T3 construct: source: MDCK cells infected with the virus (BEI Resources)

Binder | binding result [1] | hemagglutination inhibition (HAI) IC50, virus A/Brisbane/10/2007 H3N2 [2] [µg/mL] | hemagglutination inhibition (HAI) IC50, virus A/Switzerland/9715293/2013 H3N2 [3] [µg/mL] | microneutralization IC50, virus A/Brisbane/10/2007 H3N2 [4] [µg/mL] | microneutralization IC50, virus A/Switzerland/9715293/2013 H3N2 [5] [µg/mL] | binding result [6]
B1 | binds | 3.13 | 50 | 0.1 | 6.25 | binds
B2 | binds | < 0.05 | 50 | 0.1 | 0.78 | binds
